Data from the Human Domainome abundance scans (Beltran et al. 2025).
± gives the uncertainty stated by the source.

B1: CD2-associated protein, residues 1 to 59; numbered along this chain, Q9Y5K6 (parent)
chain: MVDYIVEYDYDAVHDDELTIRVGEIIRNVKKLQEEGWLEGELNGRRGMFPDNFVKEIKR

Variants of: B1
Experiment: abundance fitness (aPCA) (normalised: wild type 0, dead -1); higher = more abundant; growth selection in yeast, the domain comes from the species named
Details: Homo sapiens

MRDYIVEYDYDAVHDDELTIRVGEIIRNVKKLQEEGWLEGELNGRRGMFPDNFVKEIKR [V2R] and MFDYIVEYDYDAVHDDELTIRVGEIIRNVKKLQEEGWLEGELNGRRGMFPDNFVKEIKR [V2F] are within error of each other in abundance fitness: -0.084 ± 0.099 for the first, 0.008 ± 0.14 for the second.

MADYIVEYDYDAVHDDELTIRVGEIIRNVKKLQEEGWLEGELNGRRGMFPDNFVKEIKR [V2A] and MNDYIVEYDYDAVHDDELTIRVGEIIRNVKKLQEEGWLEGELNGRRGMFPDNFVKEIKR [V2N] are within error of each other in abundance fitness: -0.074 ± 0.071 for the first, 0.064 ± 0.27 for the second.

MQDYIVEYDYDAVHDDELTIRVGEIIRNVKKLQEEGWLEGELNGRRGMFPDNFVKEIKR [V2Q] and MHDYIVEYDYDAVHDDELTIRVGEIIRNVKKLQEEGWLEGELNGRRGMFPDNFVKEIKR [V2H] are within error of each other in abundance fitness: -0.224 ± 0.18 for the first, -0.486 ± 0.21 for the second.

MYDYIVEYDYDAVHDDELTIRVGEIIRNVKKLQEEGWLEGELNGRRGMFPDNFVKEIKR [V2Y] and MIDYIVEYDYDAVHDDELTIRVGEIIRNVKKLQEEGWLEGELNGRRGMFPDNFVKEIKR [V2I] are within error of each other in abundance fitness: -0.166 ± 0.22 for the first, 0.054 ± 0.16 for the second.

MTDYIVEYDYDAVHDDELTIRVGEIIRNVKKLQEEGWLEGELNGRRGMFPDNFVKEIKR [V2T] and MKDYIVEYDYDAVHDDELTIRVGEIIRNVKKLQEEGWLEGELNGRRGMFPDNFVKEIKR [V2K] are within error of each other in abundance fitness: -0.095 ± 0.2 for the first, 0.086 ± 0.093 for the second.

MDDYIVEYDYDAVHDDELTIRVGEIIRNVKKLQEEGWLEGELNGRRGMFPDNFVKEIKR [V2D] and MMDYIVEYDYDAVHDDELTIRVGEIIRNVKKLQEEGWLEGELNGRRGMFPDNFVKEIKR [V2M] are within error of each other in abundance fitness: -0.119 ± 0.22 for the first, 0.087 ± 0.12 for the second.

MLDYIVEYDYDAVHDDELTIRVGEIIRNVKKLQEEGWLEGELNGRRGMFPDNFVKEIKR [V2L] and MEDYIVEYDYDAVHDDELTIRVGEIIRNVKKLQEEGWLEGELNGRRGMFPDNFVKEIKR [V2E] are within error of each other in abundance fitness: -0.087 ± 0.074 for the first, -0.031 ± 0.096 for the second.

MWDYIVEYDYDAVHDDELTIRVGEIIRNVKKLQEEGWLEGELNGRRGMFPDNFVKEIKR [V2W] and MSDYIVEYDYDAVHDDELTIRVGEIIRNVKKLQEEGWLEGELNGRRGMFPDNFVKEIKR [V2S] are within error of each other in abundance fitness: -0.138 ± 0.2 for the first, -0.029 ± 0.15 for the second.

First: MCDYIVEYDYDAVHDDELTIRVGEIIRNVKKLQEEGWLEGELNGRRGMFPDNFVKEIKR [V2C]
Second: MVDYIFEYDYDAVHDDELTIRVGEIIRNVKKLQEEGWLEGELNGRRGMFPDNFVKEIKR [V6F]
The abundance fitness of the first is higher: -0.062 ± 0.12 for the first, -0.483 ± 0.13 for the second.

Compared with MVDYIPEYDYDAVHDDELTIRVGEIIRNVKKLQEEGWLEGELNGRRGMFPDNFVKEIKR [V6P], MVDYITEYDYDAVHDDELTIRVGEIIRNVKKLQEEGWLEGELNGRRGMFPDNFVKEIKR [V6T] is higher in abundance fitness: -1.2 ± 0.39 for the first, -0.367 ± 0.082 for the second.

Going from MVDYIHEYDYDAVHDDELTIRVGEIIRNVKKLQEEGWLEGELNGRRGMFPDNFVKEIKR [V6H] to MVDYIAEYDYDAVHDDELTIRVGEIIRNVKKLQEEGWLEGELNGRRGMFPDNFVKEIKR [V6A], the abundance fitness rises from -0.832 ± 0.2 to -0.08 ± 0.063.

Compared with MVDYIREYDYDAVHDDELTIRVGEIIRNVKKLQEEGWLEGELNGRRGMFPDNFVKEIKR [V6R], MVDYIYEYDYDAVHDDELTIRVGEIIRNVKKLQEEGWLEGELNGRRGMFPDNFVKEIKR [V6Y] is higher in abundance fitness: -0.875 ± 0.12 for the first, -0.52 ± 0.14 for the second.

Compared with MVDYINEYDYDAVHDDELTIRVGEIIRNVKKLQEEGWLEGELNGRRGMFPDNFVKEIKR [V6N], MVDYISEYDYDAVHDDELTIRVGEIIRNVKKLQEEGWLEGELNGRRGMFPDNFVKEIKR [V6S] is higher in abundance fitness: -1.04 ± 0.31 for the first, -0.363 ± 0.054 for the second.

MVDYIKEYDYDAVHDDELTIRVGEIIRNVKKLQEEGWLEGELNGRRGMFPDNFVKEIKR [V6K] and MVDYIMEYDYDAVHDDELTIRVGEIIRNVKKLQEEGWLEGELNGRRGMFPDNFVKEIKR [V6M] are within error of each other in abundance fitness: -0.579 ± 0.18 for the first, -0.795 ± 0.2 for the second.

Going from MVDYIEEYDYDAVHDDELTIRVGEIIRNVKKLQEEGWLEGELNGRRGMFPDNFVKEIKR [V6E] to MVDYIGEYDYDAVHDDELTIRVGEIIRNVKKLQEEGWLEGELNGRRGMFPDNFVKEIKR [V6G], the abundance fitness rises from -0.96 ± 0.33 to -0.438 ± 0.066.

Compared with MVEYIVEYDYDAVHDDELTIRVGEIIRNVKKLQEEGWLEGELNGRRGMFPDNFVKEIKR [D3E], MVIYIVEYDYDAVHDDELTIRVGEIIRNVKKLQEEGWLEGELNGRRGMFPDNFVKEIKR [D3I] is lower in abundance fitness: 0.014 ± 0.065 for the first, -0.453 ± 0.094 for the second.

Compared with MVPYIVEYDYDAVHDDELTIRVGEIIRNVKKLQEEGWLEGELNGRRGMFPDNFVKEIKR [D3P], MVQYIVEYDYDAVHDDELTIRVGEIIRNVKKLQEEGWLEGELNGRRGMFPDNFVKEIKR [D3Q] is higher in abundance fitness: -0.436 ± 0.11 for the first, -0.188 ± 0.068 for the second.

MVRYIVEYDYDAVHDDELTIRVGEIIRNVKKLQEEGWLEGELNGRRGMFPDNFVKEIKR [D3R] and MVLYIVEYDYDAVHDDELTIRVGEIIRNVKKLQEEGWLEGELNGRRGMFPDNFVKEIKR [D3L] are within error of each other in abundance fitness: -0.255 ± 0.046 for the first, -0.267 ± 0.051 for the second.

Going from MVMYIVEYDYDAVHDDELTIRVGEIIRNVKKLQEEGWLEGELNGRRGMFPDNFVKEIKR [D3M] to MVVYIVEYDYDAVHDDELTIRVGEIIRNVKKLQEEGWLEGELNGRRGMFPDNFVKEIKR [D3V], the abundance fitness falls from -0.135 ± 0.072 to -0.379 ± 0.067.

Compared with MVGYIVEYDYDAVHDDELTIRVGEIIRNVKKLQEEGWLEGELNGRRGMFPDNFVKEIKR [D3G], MVNYIVEYDYDAVHDDELTIRVGEIIRNVKKLQEEGWLEGELNGRRGMFPDNFVKEIKR [D3N] is higher in abundance fitness: -0.437 ± 0.065 for the first, 0.012 ± 0.18 for the second.

MVHYIVEYDYDAVHDDELTIRVGEIIRNVKKLQEEGWLEGELNGRRGMFPDNFVKEIKR [D3H] and MVSYIVEYDYDAVHDDELTIRVGEIIRNVKKLQEEGWLEGELNGRRGMFPDNFVKEIKR [D3S] are within error of each other in abundance fitness: -0.188 ± 0.1 for the first, -0.048 ± 0.055 for the second.

MVAYIVEYDYDAVHDDELTIRVGEIIRNVKKLQEEGWLEGELNGRRGMFPDNFVKEIKR [D3A] and MVKYIVEYDYDAVHDDELTIRVGEIIRNVKKLQEEGWLEGELNGRRGMFPDNFVKEIKR [D3K] are within error of each other in abundance fitness: -0.232 ± 0.066 for the first, -0.297 ± 0.079 for the second.

Variant MVCYIVEYDYDAVHDDELTIRVGEIIRNVKKLQEEGWLEGELNGRRGMFPDNFVKEIKR [D3C] has an abundance fitness of -0.237 ± 0.085.
